Here are results for one molecule from patent US12194057B2, “NXTAR-derived oligonucleotides and uses thereof” (Washington University, priority 2020, dated 2025).

The test system of one data set is VCaP cells. The data set is described as follows: Xenograft of VCaP cells infected with pBABE vector or NXTAR in SCID mice. It counts as in vivo. How it is done:
All animal experiments were performed using the standards for humane care in accordance with the National Institutes of Health Guide for the Care and Use of Laboratory Animals. Mice breeding and colony maintenance were performed according to IACUC protocols approved by Washington University in St. Louis. 1.5×10^6 VCaP cells were suspended in 200 μL of PBS with 50% Matrigel (Corning, Cat #354428) and implanted subcutaneously into the dorsal flank of castrated 6-week-old male SCID mice (Charles River, Strain code: 236). Once the tumors reached approximately 100 mm^3, mice were randomized and injected subcutaneously with (R)-9b mesylate salt suspended in 6% Captisol (Cydex Pharmaceuticals). Tumor volumes were measured twice weekly using calipers. At the end of the study, all mice were humanely euthanized and tumors were extracted and weighed. To assess the role of NXTAR in tumor growth, 1.5×10^6 VCaP cells that were either infected with pBABE vector or NXTAR and selected with puromycin (Gibco, Cat #A1113803), implanted and growth of tumors was recorded. The personnel taking tumor volume measurement were blinded for the treatment groups.
To examine the direct effect of NXTAR restoration on prostate tumor growth, equal numbers of VCaP infected with either pBABE vector or NXTAR constructs were injected in the SCID mice. Palpable tumors were formed around week 5 that were measured twice a week thereafter.

The target in the next data set is T1, purified EZH2 (Homo sapiens, UniProt Q15910).
T1 construct: made in house
T1 sequence (Q15910 whole entry): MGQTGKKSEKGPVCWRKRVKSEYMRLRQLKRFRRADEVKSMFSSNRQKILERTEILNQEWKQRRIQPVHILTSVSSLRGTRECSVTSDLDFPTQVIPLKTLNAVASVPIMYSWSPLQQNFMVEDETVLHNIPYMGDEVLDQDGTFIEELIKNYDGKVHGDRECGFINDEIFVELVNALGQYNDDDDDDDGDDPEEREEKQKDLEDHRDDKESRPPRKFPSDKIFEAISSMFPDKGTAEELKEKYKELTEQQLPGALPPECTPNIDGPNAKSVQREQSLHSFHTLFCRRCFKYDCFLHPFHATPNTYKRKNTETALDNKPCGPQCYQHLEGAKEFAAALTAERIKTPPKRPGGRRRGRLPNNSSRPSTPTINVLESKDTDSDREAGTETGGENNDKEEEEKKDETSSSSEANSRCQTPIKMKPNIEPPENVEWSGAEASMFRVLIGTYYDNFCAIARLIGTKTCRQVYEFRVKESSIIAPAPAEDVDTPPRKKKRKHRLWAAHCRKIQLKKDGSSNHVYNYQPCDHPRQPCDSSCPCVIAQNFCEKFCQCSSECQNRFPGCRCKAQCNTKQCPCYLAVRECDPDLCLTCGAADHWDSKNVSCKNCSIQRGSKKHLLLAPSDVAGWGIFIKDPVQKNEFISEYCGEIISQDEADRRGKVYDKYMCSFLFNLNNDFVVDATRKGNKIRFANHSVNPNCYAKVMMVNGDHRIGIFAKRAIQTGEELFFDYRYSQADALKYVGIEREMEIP
As to the kind of experiment: EZH2 pull-down assay with purified 6xHis-tagged EZH2. The following applies: immobilized on streptavidin beads. It counts as binding. How it is done:
1 mg of lysate prepared from HEK293 cells transfected with 6λHis-tagged-EZH2 plasmid was incubated with Ni-NTA agarose beads (Qiagene) overnight at 4° C. Beads were washed three times using wash buffer (20 mM Tris/HCl, 200 mM NaCl, 5 mM imidazole; pH 7.5) and purified EZH2 was eluted using elution buffer (20 mM Tris/HCl, 200 mM NaCl, 200 mM imidazole; pH 7.5).
LncRNA-Protein binding study was performed as described earlier (see e.g., Zhao, Wang, and Hu (2021) Methods Mol Bio). Briefly, 10 pmol Biotinylated NXTAR-N5 oligo or Biotinylated Globin oligos were diluted in 40 ul RNA structure buffer, heated at 90° C. for 2 min, immediately transferred onto ice for 2 min and then kept at RT for further 20 mins. 10 uM of purified EZH2 protein was added to these biotinylated oligos with 500 ul of NETN buffer and the tubes were placed at 4° C. for 2 hrs. Post washing with cold NETN buffer, streptavidin magnetic beads (60 ul) were added into prepared oligo-protein mix and incubated at 4° C. overnight. Beads were washed 3 times with NETN buffer, followed by western blot analysis. […]

B1: NXTAR: long non-coding RNA, 1476-nt transcript (SEQ ID NO: 58), expressed from retroviral or plasmid constructs (nucleic acid, listed as Homo sapiens)
chain: GGAAAAGGAAGGCTGCACAGAAGAACTGGCATTTGTGTTCTGCCTACAAAGCTGAAAAGGATTTCACCCAAATCAGGGAAGATCAGCCTTATGAGGTGGATATTATTGCCACAATAATTTTCCAGATGAAAAATGGAGGCCCAGAGATGTTAAGGAATTTGCCCAAGATCATGAAAAGACACTCTCCCCTATTGAGATGTCATGCAAGGATCAGTGCTGTGTGAAAATCCACATGAAGCAGGAAATGCAGGTGGTGGTGTCCAATCTGATTTCAAGATCTGAGAAGCTGTGCACTGCCTGAAAGGTATCTATTTAAGGTGTCACCAGACTCCTGCTCCACTCCTGCCCAAGGCCCAGCCCATCCAAGAGCAAAAGGCAAGTGGTGTTACAACCTTGGGATTTCCTGTATCTGCCCTCTTGCGGATAGCAGGACAGAGTCACAGCTGCATTAAATTCGCTTAAGACTTATTGAGACACTTCAACACTTCAACAACGACCTGTGAGATTAAGATTATTATTTTAAATTTACAGAAGGGGAAACTAAGAATTATAGACATGAAGTGACTCACCTATGACCACCTGGTGATAGAACCAGGACTAGAGCTCAGGTATGAAGATTTCTGGGGGAGTCCCTGAAAAAAAGGCTCCATATGGAATTACAATGTGGAAAAGGCCAAGGCCTCACCAACCCTTTTCTCTTCAACACCTGGATCCCTAAGTCCTTATTCGTAACCTCCTCTTTGGACAAGGTTTTGGTAGACAAAGCCAGAGCCTCTTGCACTGAGAAAGACAAATTCTCCTCTTGCAGTGAACCACAGGTAAATGCTCCAATAGAGAGTCCAAGCCAAACCTCCGGGTGTTATTCATGACCCAGGCAAGTCTGCTTTCTCATTCCCCCTATCTCTAGACCGTTTTCCATTTGGGCTTCCTTTTCTTCTTTTATCCTCAAAGAAACATGTTTCCTTCTAGTAGGTTTGGCTGCCACCACTAGGGTCCTGGCTACAACTGGCCCTCAGGTAACTCTCTCACCTCTGAGTTGGATAGTATCCTCTCTCGTCCCCATACACAAGTGTTTCTCTTCCCAGACACCTTCCTTACACAATTTCCCATTTCTTTCTCATCTCACCCTTGCTTTAATCAACATAGTTCTTTCCCCTGAGATTACTCTTCAGCCTTTCTTGTTGAAGCACTGCCCAGTGGTTCTCTTGGGATTTCCATTTCTCTCCCCTCAGCTCTCTTGGTACCAAATTCTGTAAGCTTCTCTGGTTTTTGGTTTCTCTTCCTTCTTTTCCTTCCAGGCAACATTTACTCAATCTAGGCTTGGATGATCAGGTACTTCTGCCAGCCTGCCCACTAGGGAACTCTGGGCTAGGAATATGTCTCAATGGCACCATTATATTTGGAAGGACGCTTCTGTATTTACACTGAACACACTAAAATACTAAACTTGAAGCCAAAATCCCCTCTCTGGCTCCA
For the molecule B1, in the data set with VCaP cells (NXTAR overexpressing vs vector-expressing VCaP cells), the tumor growth result is given as “significant reduction in tumor growth”. Moreover, the “AR protein levels in tumors” value with VCaP cells (immunoblotting of tumor lysates) was “significant reduction in AR protein levels”. The tumor burden entry in the data set on VCaP cells (tumor weights and volume) was “significantly reduced”. Further, the “binding to purified EZH2” value with purified EZH2 is “considerable binding”.
